{
  "source": "paper PMC139967",
  "about": "(BMC Biochemistry, 2002)",
  "origin": "cited, not measured here",
  "molecules": {"B1": {"name": "Myo1c: Myosin-1c, previously called myosin-Iβ, myr 2, or MI-110K; literature preparations (protein, UniProt O00159 1-1063, looked up)", "Unconventional myosin-Ic": "MALQVELVPTGEIIRVVHPHRPCKLALGSDGVRVTMESALTARDRVGVQDFVLLENFTSEAAFIENLRRRFRENLIYTYIGPVLVSVNPYRDLQIYSRQHMERYRGVSFYEVPPHLFAVADTVYRALRTERRDQAVMISGESGAGKTEATKRLLQFYAETCPAPERGGAVRDRLLQSNPVLEAFGNAKTLRNDNSSRFGKYMDVQFDFKGAPVGGHILSYLLEKSRVVHQNHGERNFHIFYQLLEGGEEETLRRLGLERNPQSYLYLVKGQCAKVSSINDKSDWKVVRKALTVIDFTEDEVEDLLSIVASVLHLGNIHFAANEESNAQVTTENQLKYLTRLLSVEGSTLREALTHRKIIAKGEELLSPLNLEQAAYARDALAKAVYSRTFTWLVGKINRSLASKDVESPSWRSTTVLGLLDIYGFEVFQHNSFEQFCINYCNEKLQQLFIELTLKSEQEEYEAEGIAWEPVQYFNNKIICDLVEEKFKGIISILDEECLRPGEATDLTFLEKLEDTVKHHPHFLTHKLADQRTRKSLGRGEFRLLHYAGEVTYSVTGFLDKNNDLLFRNLKETMCSSKNPIMSQCFDRSELSDKKRPETVATQFKMSLLQLVEILQSKEPAYVRCIKPNDAKQPGRFDEVLIRHQVKYLGLLENLRVRRAGFAYRRKYEAFLQRYKSLCPETWPTWAGRPQDGVAVLVRHLGYKPEEYKMGRTKIFIRFPKTLFATEDALEVRRQSLATKIQAAWRGFHWRQKFLRVKRSAICIQSWWRGTLGRRKAAKRKWAAQTIRRLIRGFVLRHAPRCPENAFFLDHVRTSFLLNLRRQLPQNVLDTSWPTPPPALREASELLRELCIKNMVWKYCRSISPEWKQQLQQKAVASEIFKGKKDNYPQSVPRLFISTRLGTDEISPRVLQALGSEPIQYAVPVVKYDRKGYKPRSRQLLLTPNAVVIVEDAKVKQRIDYANLTGISVSSLSDSLFVLHVQRADNKQKGDVVLQSDHVIETLTKTALSANRVNSININQGSITFAGGPGRDGTIDFTPGSELLITKAKNGHLAVVAPRLNSR"}},
  "key": {"[1]": {"test": "not given", "remark": "listed apart in the source"}},
  "data": [
    {"molecule": "B1", "values": [
      {"measurement": "effect of Ca^2+ on ATPase activity", "value": "increases"},
      {"measurement": "effect of Ca^2+ on in vitro motility", "setting": "[1]", "value": "completely halts"},
      {"measurement": "calmodulins per Myo1c after calmodulin supplementation", "setting": "calmodulin; calmodulin supplementation", "value": "≤ 4"},
      {"measurement": "calmodulins per Myo1c heavy chain", "setting": "calmodulin; purified Myo1c", "value": "2–3"}
    ]}
  ]
}
